From article PMC6510891, “Functional duplication of Rap1 in methylotrophic yeasts”

Experiments:
[1] = target: T1, HpRap1A (Hansenula polymorpha DL-1, UniProt W1Q7Z6 1-613); experiment: SPR; kinetic fit; SPR: 10 mM HEPES-NaOH pH 7.5, 150 mM NaCl, 0.5 mM DTT, 0.05% Tween 20, 1 mg/ml BSA, 0.02 mg/ml salmon sperm DNA; competition 2 nM protein with 20 or 200 nM competitor. EMSA: 20 mM HEPES-NaOH pH 7.5, 50 mM NaCl, 0.2 mg/ml BSA, 5% glycerol, 0.1 mg/ml salmon sperm DNA, room temperature; settings: protein: recombinant; 3' overhang 20 nt on strand 2
T1 sequence: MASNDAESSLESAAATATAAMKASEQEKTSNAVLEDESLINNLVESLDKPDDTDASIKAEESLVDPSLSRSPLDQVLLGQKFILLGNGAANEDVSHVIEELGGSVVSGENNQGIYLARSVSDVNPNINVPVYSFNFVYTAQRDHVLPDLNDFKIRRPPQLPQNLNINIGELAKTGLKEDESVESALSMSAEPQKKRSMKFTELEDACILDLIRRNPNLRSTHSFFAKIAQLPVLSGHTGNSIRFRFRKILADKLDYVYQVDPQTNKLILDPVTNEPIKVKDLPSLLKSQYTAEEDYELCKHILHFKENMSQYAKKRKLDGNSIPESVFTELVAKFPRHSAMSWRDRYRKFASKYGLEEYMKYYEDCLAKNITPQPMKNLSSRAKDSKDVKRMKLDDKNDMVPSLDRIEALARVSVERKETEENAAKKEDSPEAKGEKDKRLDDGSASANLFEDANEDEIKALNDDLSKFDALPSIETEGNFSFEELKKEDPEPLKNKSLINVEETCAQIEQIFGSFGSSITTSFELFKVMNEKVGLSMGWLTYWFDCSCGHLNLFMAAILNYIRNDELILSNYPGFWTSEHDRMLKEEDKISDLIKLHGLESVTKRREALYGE

[2] = target: T2, HpRap1B (Hansenula polymorpha DL-1, UniProt W1QDN2 1-576); experiment: SPR; kinetic fit; equilibrium Kd 65±2; SPR: 10 mM HEPES-NaOH pH 7.5, 150 mM NaCl, 0.5 mM DTT, 0.05% Tween 20, 1 mg/ml BSA, 0.02 mg/ml salmon sperm DNA; competition 2 nM protein with 20 or 200 nM competitor. EMSA: 20 mM HEPES-NaOH pH 7.5, 50 mM NaCl, 0.2 mg/ml BSA, 5% glycerol, 0.1 mg/ml salmon sperm DNA, room temperature; settings: protein: recombinant; 3' overhang 20 nt on strand 2
T2 sequence: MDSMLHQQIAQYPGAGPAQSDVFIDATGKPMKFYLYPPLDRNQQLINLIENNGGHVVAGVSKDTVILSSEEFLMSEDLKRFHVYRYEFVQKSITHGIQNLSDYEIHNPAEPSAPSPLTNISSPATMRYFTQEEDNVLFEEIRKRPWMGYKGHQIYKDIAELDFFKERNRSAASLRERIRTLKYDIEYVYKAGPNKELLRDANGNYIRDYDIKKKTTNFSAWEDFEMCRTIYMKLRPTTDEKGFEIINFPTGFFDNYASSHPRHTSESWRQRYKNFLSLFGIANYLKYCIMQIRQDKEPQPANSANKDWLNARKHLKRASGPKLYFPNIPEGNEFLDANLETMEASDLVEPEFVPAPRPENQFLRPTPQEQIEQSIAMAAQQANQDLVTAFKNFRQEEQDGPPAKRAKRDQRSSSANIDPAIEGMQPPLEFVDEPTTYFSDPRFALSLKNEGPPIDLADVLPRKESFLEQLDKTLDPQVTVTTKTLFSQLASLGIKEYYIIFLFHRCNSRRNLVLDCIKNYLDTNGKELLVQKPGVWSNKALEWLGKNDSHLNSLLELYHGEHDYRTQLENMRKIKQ

[3] = target: T1, HpRap1A; experiment: SPR; kinetic fit; equilibrium Kd 12±3; SPR: 10 mM HEPES-NaOH pH 7.5, 150 mM NaCl, 0.5 mM DTT, 0.05% Tween 20, 1 mg/ml BSA, 0.02 mg/ml salmon sperm DNA; competition 2 nM protein with 20 or 200 nM competitor. EMSA: 20 mM HEPES-NaOH pH 7.5, 50 mM NaCl, 0.2 mg/ml BSA, 5% glycerol, 0.1 mg/ml salmon sperm DNA, room temperature; settings: protein: recombinant; 3' overhang 20 nt on strand 2
[4] = target: T2, HpRap1B; experiment: SPR; SPR: 10 mM HEPES-NaOH pH 7.5, 150 mM NaCl, 0.5 mM DTT, 0.05% Tween 20, 1 mg/ml BSA, 0.02 mg/ml salmon sperm DNA; competition 2 nM protein with 20 or 200 nM competitor. EMSA: 20 mM HEPES-NaOH pH 7.5, 50 mM NaCl, 0.2 mg/ml BSA, 5% glycerol, 0.1 mg/ml salmon sperm DNA, room temperature; settings: protein: recombinant; 3' overhang 20 nt on strand 2
[5] = target: T1, HpRap1A; experiment: SPR; kinetic fit; equilibrium Kd 1.8±0.5; SPR: 10 mM HEPES-NaOH pH 7.5, 150 mM NaCl, 0.5 mM DTT, 0.05% Tween 20, 1 mg/ml BSA, 0.02 mg/ml salmon sperm DNA; competition 2 nM protein with 20 or 200 nM competitor. EMSA: 20 mM HEPES-NaOH pH 7.5, 50 mM NaCl, 0.2 mg/ml BSA, 5% glycerol, 0.1 mg/ml salmon sperm DNA, room temperature; settings: protein: recombinant; 3' overhang 20 nt on strand 2
[6] = target: T2, HpRap1B; experiment: SPR; kinetic fit; equilibrium Kd 1.9±0.1; SPR: 10 mM HEPES-NaOH pH 7.5, 150 mM NaCl, 0.5 mM DTT, 0.05% Tween 20, 1 mg/ml BSA, 0.02 mg/ml salmon sperm DNA; competition 2 nM protein with 20 or 200 nM competitor. EMSA: 20 mM HEPES-NaOH pH 7.5, 50 mM NaCl, 0.2 mg/ml BSA, 5% glycerol, 0.1 mg/ml salmon sperm DNA, room temperature; settings: protein: recombinant; 3' overhang 20 nt on strand 2
[7] = target: T1, HpRap1A; experiment: SPR; SPR: 10 mM HEPES-NaOH pH 7.5, 150 mM NaCl, 0.5 mM DTT, 0.05% Tween 20, 1 mg/ml BSA, 0.02 mg/ml salmon sperm DNA; competition 2 nM protein with 20 or 200 nM competitor. EMSA: 20 mM HEPES-NaOH pH 7.5, 50 mM NaCl, 0.2 mg/ml BSA, 5% glycerol, 0.1 mg/ml salmon sperm DNA, room temperature; settings: protein: recombinant; 3' overhang 20 nt on strand 2
[8] = target: T2, HpRap1B; experiment: SPR; kinetic fit; equilibrium Kd 1.7±0.2; SPR: 10 mM HEPES-NaOH pH 7.5, 150 mM NaCl, 0.5 mM DTT, 0.05% Tween 20, 1 mg/ml BSA, 0.02 mg/ml salmon sperm DNA; competition 2 nM protein with 20 or 200 nM competitor. EMSA: 20 mM HEPES-NaOH pH 7.5, 50 mM NaCl, 0.2 mg/ml BSA, 5% glycerol, 0.1 mg/ml salmon sperm DNA, room temperature; settings: protein: recombinant; 3' overhang 20 nt on strand 2
[9] = target: T2, HpRap1B; experiment: SPR; kinetic fit; equilibrium Kd 11±1; SPR: 10 mM HEPES-NaOH pH 7.5, 150 mM NaCl, 0.5 mM DTT, 0.05% Tween 20, 1 mg/ml BSA, 0.02 mg/ml salmon sperm DNA; competition 2 nM protein with 20 or 200 nM competitor. EMSA: 20 mM HEPES-NaOH pH 7.5, 50 mM NaCl, 0.2 mg/ml BSA, 5% glycerol, 0.1 mg/ml salmon sperm DNA, room temperature; settings: protein: recombinant; 3' overhang 20 nt on strand 2
[10] = target: T1, HpRap1A; experiment: SPR; kinetic fit; equilibrium Kd 38±15; SPR: 10 mM HEPES-NaOH pH 7.5, 150 mM NaCl, 0.5 mM DTT, 0.05% Tween 20, 1 mg/ml BSA, 0.02 mg/ml salmon sperm DNA; competition 2 nM protein with 20 or 200 nM competitor. EMSA: 20 mM HEPES-NaOH pH 7.5, 50 mM NaCl, 0.2 mg/ml BSA, 5% glycerol, 0.1 mg/ml salmon sperm DNA, room temperature; settings: protein: recombinant; 3' overhang 20 nt on strand 2
[11] = target: T1, HpRap1A; experiment: competition SPR; score - vs VIIrAbs surface; SPR: 10 mM HEPES-NaOH pH 7.5, 150 mM NaCl, 0.5 mM DTT, 0.05% Tween 20, 1 mg/ml BSA, 0.02 mg/ml salmon sperm DNA; competition 2 nM protein with 20 or 200 nM competitor. EMSA: 20 mM HEPES-NaOH pH 7.5, 50 mM NaCl, 0.2 mg/ml BSA, 5% glycerol, 0.1 mg/ml salmon sperm DNA, room temperature; settings: protein: recombinant; blunt
[12] = target: T2, HpRap1B; experiment: competition SPR; score +++ vs PICKU surface; SPR: 10 mM HEPES-NaOH pH 7.5, 150 mM NaCl, 0.5 mM DTT, 0.05% Tween 20, 1 mg/ml BSA, 0.02 mg/ml salmon sperm DNA; competition 2 nM protein with 20 or 200 nM competitor. EMSA: 20 mM HEPES-NaOH pH 7.5, 50 mM NaCl, 0.2 mg/ml BSA, 5% glycerol, 0.1 mg/ml salmon sperm DNA, room temperature; settings: protein: recombinant; blunt
[13] = target: T1, HpRap1A; experiment: EMSA; up to 250 nM protein, 50 nM DNA; SPR: 10 mM HEPES-NaOH pH 7.5, 150 mM NaCl, 0.5 mM DTT, 0.05% Tween 20, 1 mg/ml BSA, 0.02 mg/ml salmon sperm DNA; competition 2 nM protein with 20 or 200 nM competitor. EMSA: 20 mM HEPES-NaOH pH 7.5, 50 mM NaCl, 0.2 mg/ml BSA, 5% glycerol, 0.1 mg/ml salmon sperm DNA, room temperature; settings: protein: recombinant; label: 5' FAM on strand 1; blunt
[14] = target: T2, HpRap1B; experiment: as above; settings: protein: recombinant; label: 5' FAM on strand 1; blunt

B1: VIIrAbs (SPR) (dsDNA)
DNA 1: GGCAGGCGGTGTAGGGATGCGGC
DNA 2: GCCGCATCCCTACACCGCCTGCCCCTCTACGTCCTCCTGCTCC
Kd [1]: 0.28 ± 0.09 nM | Kd [2]: 64 ± 2 nM

B2: RPS0a (dsDNA)
DNA 1: AGAGGGCTGTGCACGGATGCTAT
DNA 2: ATAGCATCCGTGCACAGCCCTCTCCTCTACGTCCTCCTGCTCC
Kd [3]: 10 ± 4 nM | binding result [4]: no binding

B3: RPL5a (dsDNA)
DNA 1: CTTGTGTGGTGCAGGGGTGGCAG
DNA 2: CTGCCACCCCTGCACCACACAAGCCTCTACGTCCTCCTGCTCC
Kd [5]: 1.4 ± 0.3 nM | Kd [6]: 2 nM

B4: RPS0b (dsDNA)
DNA 1: ATTTCTTGGTGCGAGGGGGCTCT
DNA 2: AGAGCCCCCTCGCACCAAGAAATCCTCTACGTCCTCCTGCTCC
binding result [7]: no binding | Kd [8]: 1.5 ± 0.4 nM

B5: HANPO2 (SPR) (dsDNA)
DNA 1: GGGTGGCGGGGTGGCG
DNA 2: CGCCACCCCGCCACCCCCTCTACGTCCTCCTGCTCC
binding result [7]: no binding | Kd [9]: 12 ± 1 nM

B6: SACCE (SPR) (dsDNA)
DNA 1: GTGTGTGGGTGTGTGGGTGTGTG
DNA 2: CACACACCCACACACCCACACACCCTCTACGTCCTCCTGCTCC
Kd [10]: 39 ± 15 nM

B7: PICKU (competitor) (dsDNA)
DNA 1: TGAACTAGGAGCGAGGTGTGTTAC
DNA 2: GTAACACACCTCGCTCCTAGTTCA
binding result [11]: no binding | binding result [12]: binds

B8: FAM-HANPO2 (dsDNA)
DNA 1: GGGTGGCGGGGTGGCG
DNA 2: CGCCACCCCGCCACCC
binding result [13]: no binding | binding result [14]: binds
